# Measurements taken from patent US20190127480A1 (Regeneron, published 2019).
# Where a chain is given by its changes, count along the chain named.
# B1: H2M2689N (antibody, V domains shown)
# VH: QVQLVESGGGVVQPGRSLRLSCAASGFTFSRKGMHWVRQAPVKGLEWVAVISYDGSNKYYADSVKGRFTISRDNSKNTLYLQMNSLTAEDTAVYYCAKEGGHDYGGTFDYWGQGTLVTVSS
# VL: not shown
# notes: Hybridoma antibody, human variable regions, mouse IgG2 Fc
# B2: H2M2690N (antibody, V domains shown)
# VH: EVQLVESGGGLVQPGRSLRLSCAASGFTFDDYTMHWVRQAPGKGLEWVSGISWNSGSIGYADSVKGRFTISRDNAKKSLYLQMNSLRAEDTALYYCAKDNSGYGHYYYGMDVWGQGTTVTVAS
# VL: EIVMTQSPATLSVSPGERATLSCRASQSVSSNLAWYQQKPGQAPRLLIYGASTRATGIPARFSGSGSGTEFTLTISSLQSEDFAVYYCQHYINWPLTFGGGTKVEIK
# notes: as for B1
# B3: H2M2691N (antibody, V domains shown)
# VH: B2 VH
# VL: B2 VL
# notes: as for B1
# B4: H1M2692N (antibody, V domains shown)
# VH: EVQLVESGGGLVQPGGSLRLSCAASGFSFDDYTMHWVRQPPGKGLEWVSGISWNSGSIGYADSVKGRFTISRDNAKNSLYLQMNSLRAGDTALYYCAKDNSGYGYYYYYGMDVWGQGTTVTVSS
# VL: B2 VL with H90Q, I92Y
# notes: Hybridoma antibody, human variable regions, mouse IgG1 Fc
# B5: H2M2707N (antibody, V domains shown)
# VH: QVQLVESGGGVVQPGRSLRLSCIASGFTFRSYGMHWVRQAPGKGLEWVAMIYYDGNNKYYADSVRGRFTISRDNSKNTLYLQMNSLRADDTAVYFCARGPGYNWLDPWGQGTLVTVSS
# VL: B2 VL with H90Q, I92N, W94R
# notes: as for B1
# B6: H2M2706N (antibody, V domains shown)
# VH: B5 VH with I23A, G33A, I51V, K58Q
# VL: B2 VL with S31R, E70D, H90Q, I92N, E105V
# notes: as for B1
# B7: H2M2774N (antibody, V domains shown)
# VH: B5 VH with I23V, E46Q, N56K, D89E, V93M
# VL: B2 VL with S28R, V29I, I58S, F83V, H90Q, Y91H, I92N
# notes: as for B1
# B8: H2M2708N (antibody, V domains shown)
# VH: B5 VH with I23A, Y32F, K43R, Y53F, N56K, Q82E, N84S, D89E
# VL: B2 VL with A19V, V29I, S31R, I58V, Y86F, Y87H, H90Q, I92N, W94R, K103E
# notes: as for B1
# B9: H2M2710N (antibody, V domains shown)
# VH: B5 VH with I23A, Y32F, K43R, Y53F, N56K, Q82E, N84S, D89E
# VL: B2 VL with S31R, I58V, Y86F, Y87H, H90Q, I92N, W94R, K103E
# notes: as for B1
# B10: H2M2711N (antibody, V domains shown)
# VH: B5 VH with I23A, Y32F, K43R, Y53F, N56K, Q82E, N84S, D89E
# VL: B2 VL with S31R, I58V, Y86F, Y87H, H90Q, I92N, W94R, K103E
# notes: as for B1
# B11: H2M2775N (antibody, V domains shown)
# VH: B5 VH with I23A, Y32F, K43R, Y53F, N56K, Q82E, N84S, D89E
# VL: EIVMTQSPATLSVSPGERVILSCRASQSISRNLAWYQQKPGQAPRLLIYGATTRATGVPARFSGSGSGTEFTLTISSLQSEDFAVFYCQQYNNRPLTFGGGTEVEIK
# notes: as for B1
# B12: H2M2885N (antibody, V domains shown)
# VH: B5 VH with I23A, Y32F, K43R, Y53F, N56K, Q82E, N84S, D89E
# VL: B11 VL
# notes: as for B1
# B13: H2M2886N (antibody, V domains shown)
# VH: B5 VH with I23A, Y32F, K43R, Y53F, N56K, Q82E, N84S, D89E
# VL: B11 VL
# notes: as for B1
# B14: H1M2712N (antibody, V domains shown)
# VH: B2 VH with R16G, S25T, Y32F, A61V, K77N, H105Y, A122S
# VL: B2 VL with Q27H, S31R, L33S, V85I, H90Q, I92N
# notes: Mouse IgG1 Fc form
# B15: H2M2777N (antibody, V domains shown)
# VH: B5 VH
# VL: B2 VL with H90Q, I92N, W94R
# notes: as for B1
# B16: H2M2778N (antibody, V domains shown)
# VH: B4 VH with G16R, S28T, T33S, P40A, G56R, G59D, G89E, A97V, Y105R, T121S
# VL: B2 VL with E1K, S31G, G57S, Y87F, I92Y, K107R
# notes: as for B1
# B17: H2M2779N (antibody, V domains shown)
# VH: B2 VH with R16G, S25T, Y32F, A61V, K77N, H105Y, A122S
# VL: not shown
# notes: as for B1
# B18: H2M2862N (antibody, V domains shown)
# VH: B5 VH with I23A, Y59K, A88V, D89E
# VL: B2 VL with S31R, G57D, T72I, T74N, V85L, H90Q, I92S, K103E
# notes: as for B1
# B19: H2M3540N (antibody, V domains shown)
# VH: QVHLEESGGGVVQPGRSLRLSCSASGFTFSSYAMHWVRQAPGKGLEWVAVIWYDGTNKYYLDSVKGRFTISRDNSKNTLFLQMNSLRAEDTAVYYCARDRGSIITHWGQGTLVTVSS
# VL: DIQMTQSPSSLSASIGDRVTITCRASQNISSYLNWYQQKPGKAPKLLIYAASSLQSGVPSRFSGSGSGTDFTLTISSLQPEDFATYYCQQTYSTPPITFGQGTRLEIK
# notes: as for B1
# B20: H1M3549N (antibody, V domains shown)
# VH: EVQLVESGGGLVQPGRSLRLSCVASGFPFADYTMHWVRQAPGKGLEWVSDISWNSGSIGYADSVKGRFTISRDNAKNSLYLQMNSLRTEDTALYYCAKDMSGYAHYFYYGMDVWGQGTTVTVSS
# VL: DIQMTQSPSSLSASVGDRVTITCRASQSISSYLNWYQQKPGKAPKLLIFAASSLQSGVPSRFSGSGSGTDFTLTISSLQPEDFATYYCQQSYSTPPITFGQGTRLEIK
# notes: as for B4
# B21: H1M3542N (antibody, V domains shown)
# VH: B20 VH with I58K, L93F
# VL: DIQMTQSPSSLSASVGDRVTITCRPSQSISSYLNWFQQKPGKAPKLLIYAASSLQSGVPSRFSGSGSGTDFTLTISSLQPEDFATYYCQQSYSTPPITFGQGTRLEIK
# notes: as for B4
# B22: H1M3613N (antibody, V domains shown)
# VH: B20 VH with R19K, V23T, P28T, A40G, I58K, F107Y, G110A, M111L
# VL: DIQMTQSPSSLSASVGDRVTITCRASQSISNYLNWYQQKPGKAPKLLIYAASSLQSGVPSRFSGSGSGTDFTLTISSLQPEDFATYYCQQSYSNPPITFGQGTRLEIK
# notes: as for B4
# B23: H2M3541N (antibody, V domains shown)
# VH: B20 VH with Q13R, V23A, P28T, A30D, S57T, T88P, F107Y
# VL: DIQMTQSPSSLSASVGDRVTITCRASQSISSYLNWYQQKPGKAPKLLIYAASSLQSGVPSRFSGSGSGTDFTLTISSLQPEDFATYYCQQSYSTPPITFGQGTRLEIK
# notes: as for B1
# B24: H2M2689N (antibody, mouse IgG2, V domains shown)
# VH: B1 VH
# VL: not shown
# notes: H2M: mouse IgG2 Fc, human variable regions; divalent
# B25: H2M2779N (antibody, V domains shown)
# VH: B2 VH with R16G, S25T, Y32F, A61V, K77N, H105Y, A122S
# VL: not shown
# notes: as for B24
# B26: H1M3544N (antibody, mouse IgG1, V domains shown)
# VH: EVQLVESGGGLVQPGRSLRLSCAASGFTFDDYTMHWVRQVPGKGLEWVSGISWNSGSLAYADSVKGRFTISRDNAKNSLYLQMNSLHPEDTALYYCVKDGSGYGHYSYYGLDVWGQGTTVTVSS
# VL: not shown
# notes: H1M: mouse IgG1 Fc, human variable regions; divalent
# Molecular target: T1, Soluble heterodimeric CD3 protein (hCD3-epsilon/hCD3-delta) with a human Fc tag (hFcΔAdp/hFc) or a mouse Fc … (human, UniProt P07766 23-126; P04234 22-105)
# T1 construct: also called hCD3ε/δ; not shown: Fc tag: human (hFcΔAdp/hFc); which tag was used in Ta
# T1 sequence (P07766 23-126 limits assumed, stated change not applied, chain 1 of 2): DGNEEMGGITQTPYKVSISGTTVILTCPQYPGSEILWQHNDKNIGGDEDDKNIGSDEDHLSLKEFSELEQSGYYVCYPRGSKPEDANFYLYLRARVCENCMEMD
# T1 sequence (P04234 22-105 limits assumed, stated change not applied, chain 2 of 2): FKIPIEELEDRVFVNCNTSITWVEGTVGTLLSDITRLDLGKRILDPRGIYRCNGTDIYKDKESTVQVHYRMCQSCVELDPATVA
# Experiment: SPR Biacore, 25 C, antibody-capture format
# Experimental: (§1) Measurements were conducted on a T200 Biacore™ instrument.
# Soluble heterodimeric CD3 protein (hCD3-epsilon/hCD3-delta; SEQ ID NOs:1652/1653) with either a human Fc tag (hFcΔAdp/hFc; SEQ ID NOs:1683/1684) or a mouse Fc tag (mFcΔAdp/mFc; SEQ ID NOs:1685/1686) was injected over the antibody captured surface and the binding response was recorded. Heterodimeric CD3 protein was purified using the method described in Davis et al. (US2010/0331527).
# (§2) Kinetic association (kₐ) and dissociation (kd) rate constants were determined by processing and fitting the data to a 1:1 binding model using Scrubber 2.0 curve fitting software. Binding dissociation equilibrium constants (KD) and dissociative half-lives (t₁₁₂) were calculated from the kinetic rate constants as: KD (M)=kd/kₐ; and t_{1/2} (min)=(ln 2/(60*kd). NT=not tested; NB=no binding observed.
Binder,Kd,T½,koff,kon
B1,4.18 nM,4 min,0.00323 s⁻¹,773000 M⁻¹ s⁻¹
B2,20.9 nM,57 min,0.000202 s⁻¹,9700 M⁻¹ s⁻¹
B3,20.1 nM,56 min,0.000207 s⁻¹,10300 M⁻¹ s⁻¹
B4,53.9 nM,27 min,0.000434 s⁻¹,8050 M⁻¹ s⁻¹
B5,63.5 nM,6 min,0.00187 s⁻¹,29500 M⁻¹ s⁻¹
B6,135 nM,3 min,0.00444 s⁻¹,32900 M⁻¹ s⁻¹
B7,11.8 nM,13 min,0.000918 s⁻¹,77900 M⁻¹ s⁻¹
B8,8.82 nM,19 min,0.000612 s⁻¹,69400 M⁻¹ s⁻¹
B9,11.2 nM,15 min,0.000753 s⁻¹,67200 M⁻¹ s⁻¹
B10,11.4 nM,15 min,0.000767 s⁻¹,67200 M⁻¹ s⁻¹
B11,8.98 nM,18 min,0.000626 s⁻¹,69700 M⁻¹ s⁻¹
B12,9.54 nM,18 min,0.000651 s⁻¹,68200 M⁻¹ s⁻¹
B13,8.96 nM,18 min,0.000653 s⁻¹,72900 M⁻¹ s⁻¹
B14,23.5 nM,53 min,0.000219 s⁻¹,9320 M⁻¹ s⁻¹
B15,43.9 nM,7 min,0.00163 s⁻¹,37000 M⁻¹ s⁻¹
B16,8.9 nM,61 min,0.000189 s⁻¹,21300 M⁻¹ s⁻¹
B17,10.5 nM,51 min,0.000228 s⁻¹,21800 M⁻¹ s⁻¹
B18,80.7 nM,4 min,0.003 s⁻¹,37200 M⁻¹ s⁻¹
B19,16.2 nM,19 min,0.000611 s⁻¹,37700 M⁻¹ s⁻¹
B20,77.6 nM,13 min,0.000919 s⁻¹,11800 M⁻¹ s⁻¹
B21,21.4 nM,23 min,0.000508 s⁻¹,23700 M⁻¹ s⁻¹
B22,15.7 nM,38 min,0.000304 s⁻¹,19300 M⁻¹ s⁻¹
B23,189 nM,9 min,0.00135 s⁻¹,7100 M⁻¹ s⁻¹

# Molecular target: T2, Soluble heterodimeric CD3 protein (hCD3-epsilon/hCD3-delta) with either a human Fc tag (hFcΔAdp/hFc) or a … (human, UniProt P07766 23-126; P04234 22-105)
# T2 construct: also called hCD3ε/δ; not shown: Fc tag: human (hFcΔAdp/hFc)
# T2 sequence (P07766 23-126 limits assumed, stated change not applied, chain 1 of 2): as the sequence (P07766 23-126 limits assumed, stated change not applied, chain 1 of 2) above
# T2 sequence (P04234 22-105 limits assumed, stated change not applied, chain 2 of 2): as the sequence (P04234 22-105 limits assumed, stated change not applied, chain 2 of 2) above
# Experiment: SPR Biacore 25C antigen-capture
# Experimental: as §1
# In the antigen-capture format, heterodimeric CD3 protein was captured using a rabbit anti-mouse Fc or mouse anti-human Fc and the respective antibodies were injected over the captured antigen.
# as §2
Binder,Kd,T½,koff,kon
B24,0.0583 nM,116 min,9.97e-05 s⁻¹,1.71e+06 M⁻¹ s⁻¹
B25,0.0938 nM,941 min,1.23e-05 s⁻¹,128000 M⁻¹ s⁻¹
B26,,193 min,,
